According to the supplement of paper PMC10567573:

B1: FCHO1 (parent)
chain: DKLALCHLELTRKLQDLIKDVLRY

Variants of: B1
Experiment: protein stability index of a GFP-peptide fusion (GPS, HEK-293T) (PSI 1-6); higher = more stable
Conditions: c terminus: a fixed tail appended
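Further: lentivirally expressed fusions sorted by FACS into six bins by GFP to DsRed ratio, PSI derived from sequencing read proportions per bin multiplied by bin number.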

Protein stability index, by site and new letter:
R12: E 1.54 | C 2.23 | W 2.44 | N 2.54 | G 2.7 | Y 2.6 | P 1.53 | A 1.42 | H 2.98 | D 2.92 | I 2.33 | V 1.83 | S 2.56 | M 1.99 | Q 2.9 | T 1.94
K19: R 2.22 | Y 2.43 | D 1.78 | S 1.71 | F 1.66 | I 2.33 | H 2.18 | Q 1.36 | N 2.69 | P 2.36 | A 1.17 | E 2.16 | G 2.29 | C 2.7 | M 2.52
Q15: D 2.48 | A 2.11 | C 2.26 | R 2.88 | N 2.84 | I 3.87 | P 1.36 | S 4.09 | Y 2.79 | T 2.05 | L 3.4 | W 2.34 | V 1.95
V21: F 2.25 | N 2.02 | I 2.97 | G 2.84 | P 2.13 | H 3.97 | D 1.43 | E 2.24
K13: T 3.29 | A 1.46 | E 2.19 | V 3.38 | P 2.54 | L 1.52 | S 1.98 | C 1.75 | M 2.21 | N 1.8 | I 1.15 | D 2.86 | Y 2.74 | G 2.47 | R 2.23
L14: S 2.13 | E 2.3 | Q 2.14 | D 3.23 | M 4.05 | I 3.06 | N 2.33 | H 1.88 | G 1.53 | K 1.95 | F 1.12 | P 2.99 | W 1.53 | R 2.6 | Y 1.49 | C 3.78
E9: Y 3.21
D16: M 2.46 | S 2.2 | V 2.92 | I 2.67 | C 3.11 | W 2.1 | N 3.32 | Y 2.42 | F 2.36 | P 2.15
I18: M 2.05 | C 2.17 | H 2.12 | P 2.11 | F 3.1 | D 2.98 | Q 1.73 | K 3.16 | Y 2.52 | T 2.02 | N 2.4 | A 2.71 | R 2.76 | G 2.33 | E 3.6 | S 2.6
T11: E 1.27 | S 2.25 | Q 2.8 | I 1.69 | C 3.34 | F 3.07 | N 1.26 | D 3.07 | P 1.51 | Y 2.57 | M 2.82
L10: S 1.93 | Y 1.76 | A 2.75 | Q 3.04 | M 4.05 | V 3 | P 1.69 | H 1.3 | F 3.33 | N 1.21 | K 1.59 | R 1.51 | C 2.22 | E 2.57 | G 1.86 | D 2.09 | T 2.14
L17: R 2.12 | D 2.06 | G 3.64 | S 2.04 | K 2.77 | W 4.39 | F 2.42 | P 3.05 | V 2.4 | H 2.06 | I 2.89 | E 2.04 | N 2.13 | Q 1.35 | T 2.71 | A 1.42 | Y 3.59
D20: G 3.57 | K 1.71 | W 2.4 | L 2.19 | P 2.52 | F 1.87 | I 2.16 | M 1.9 | C 1.11 | V 2.67 | N 4.79 | Y 2.3
